Data on 2 proteins can be found in paper PMC9814550, “Exo-selective intermolecular Diels–Alder reaction by PyrI4 and AbnU on non-natural substrates” (Communications Chemistry, 2021).

Test in all cases: intermolecular Diels-Alder kinetics
Substrate in data set [1]: C=C/C=C/NC(=O)OCc1ccc(C(=O)OC)cc1
Type of data set: biochemical, Parafrankia colletiae. The following applies: co-substrate 2, PBS pH 7.4, 37 °C. The text has this:
intermolecular Diels-Alder kinetics on AbnU

Substrate in data set [2]: C=C/C=C/NC(=O)OCc1ccc(C(=O)OC)cc1
Type of data set: biochemical, Streptomyces rugosporus. The following applies: co-substrate 2, PBS pH 7.4, 37 °C. The text has this:
(§1) intermolecular Diels-Alder kinetics on PyrI4

Substrate in data set [3]: C=CC(=O)N(C)C
Type of data set: biochemical, Streptomyces rugosporus. The following applies: co-substrate 1a, PBS pH 7.4, 37 °C.
Text: as §1

B1: AbnU (Parafrankia colletiae) (protein)
chain: MSVVHEGIWEPQIRNEQNVNVADPQVGQIGSYYDELYDSSRELLGITIGRYEIRYKKVGGAVLTYYSEDLFLRDGIIHAEGWADFNDVKNGVWVGYPAVGLDGVYRGLDGRREWRVIEPDQPVEARISLHG
notes: N-terminal poly-His tag, pET28a(+), codon-optimised synthetic gene, E. coli; dimer
As for B1, in data set [1], the Km (usually the concentration of substrate that gives half-maximal velocity) was found to be 200 ± 10 µM and the kcat (usually the maximal rate divided by the concentration of active sites) came out at 1.17e-05 ± 2.8e-07 s⁻¹.

B2: PyrI4 (Streptomyces rugosporus) (protein)
chain: MTTPQIDERAMEAGAAALQETIVDPGPLDVTALAVAAALAAGLHSAADDPAAALDKCIVLDELTEFAEKLVVHDRPGGIGTTVEYVEVYEDASGVRLGTATGNAVVLKMEPHMWQFHQSVSELADGSFEAVGVIDCTAMLRRMTQVLRVTGRSGRYAGKSGFMTLAISDPNQRPPHYSVQVVLC
notes: full length, N-terminal poly-His tag, pET28a(+), codon-optimised synthetic gene, E. coli
In the case of B2, in data set [2], the Km was 200 ± 10 µM and the kcat amounted to 6.39e-06 ± 5.6e-07 s⁻¹. Further, in data set [3], the Km was found to be 100000 ± 1250 µM and the kcat stood at 6.39e-06 ± 5.6e-07 s⁻¹.
